Data published in the supplement of paper PMC9112550, “Optimization of the antimicrobial peptide Bac7 by deep mutational scanning” (BMC Biology, 2022).

Each sequence was assayed on Escherichia coli TOP10 (assay: shrunken log2 fold change of peptide-encoding DNA abundance (4.5 h post-induction vs induction); higher = less antimicrobial activity (less host growth inhibition)). Conditions: time post-induction: 4.5 h; library: site-saturation at positions 5, 18, 19, 20.
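Also: peptides expressed intracellularly from a pBAD plasmid library in pooled LB shake-flask culture, induced with 0.3% L-arabinose, DNA abundance read by NGS, three biological replicates, DESeq2 with apeglm shrinkage.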

| Sequence | shrunken log2 fold change |
| --- | --- |
| RRIRHRPPRLPRPRPRPRVFPRP | 0.201 |
| RRIRNRPPRLPRPRPRPQYKPRP | -0.876 |
| RRIRKRPPRLPRPRPRPHRYPRP | 0.321 |
| RRIRSRPPRLPRPRPRPYDWPRP | -0.102 |
| RRIRERPPRLPRPRPRPFVDPRP | -0.0208 |
| RRIRDRPPRLPRPRPRPIWYPRP | -0.0481 |
| RRIRRRPPRLPRPRPRPIVQPRP | -0.0768 |
| RRIRQRPPRLPRPRPRPWAHPRP | -0.0595 |
| RRIRIRPPRLPRPRPRPPSLPRP | 0.18 |
| RRIRERPPRLPRPRPRPEMPPRP | 0.112 |
| RRIRCRPPRLPRPRPRPRGPPRP | 0.816 |
| RRIRYRPPRLPRPRPRPHLQPRP | -0.388 |
| RRIRPRPPRLPRPRPRPYIPPRP | -0.719 |
| RRIRCRPPRLPRPRPRPLVNPRP | -0.841 |
| RRIRPRPPRLPRPRPRPSPPPRP | 0.0408 |
| RRIRQRPPRLPRPRPRPAGFPRP | 0.266 |
| RRIRFRPPRLPRPRPRPASAPRP | 0.47 |
| RRIRTRPPRLPRPRPRPIATPRP | 0.227 |
| RRIRCRPPRLPRPRPRPGAYPRP | -0.319 |
| RRIRKRPPRLPRPRPRPESRPRP | 0.625 |
| RRIRLRPPRLPRPRPRPHDLPRP | -0.308 |
| RRIRVRPPRLPRPRPRPDCWPRP | 0.135 |
| RRIRDRPPRLPRPRPRPGPYPRP | -0.079 |
| RRIRARPPRLPRPRPRPVYWPRP | 0.141 |
| RRIRHRPPRLPRPRPRPTMRPRP | 0.402 |

| Sequence | shrunken log2 fold change |
| --- | --- |
| RRIRQRPPRLPRPRPRPERHPRP | 0.181 |
| RRIRVRPPRLPRPRPRPQRGPRP | 0.198 |
| RRIRMRPPRLPRPRPRPSHSPRP | -0.266 |
| RRIRERPPRLPRPRPRPYSQPRP | -0.443 |
| RRIRSRPPRLPRPRPRPRMAPRP | 1.31 |
| RRIRPRPPRLPRPRPRPKTNPRP | 0.0176 |
| RRIRIRPPRLPRPRPRPIEFPRP | -0.0138 |
| RRIRSRPPRLPRPRPRPTEMPRP | 0.233 |
| RRIRQRPPRLPRPRPRPHGGPRP | -0.0841 |
| RRIRIRPPRLPRPRPRPPGIPRP | -0.147 |
| RRIRGRPPRLPRPRPRPTHSPRP | 0.587 |
| RRIRNRPPRLPRPRPRPQYLPRP | -0.123 |
| RRIRMRPPRLPRPRPRPCFRPRP | 0.123 |
| RRIRKRPPRLPRPRPRPLHEPRP | 1.06 |
| RRIRRRPPRLPRPRPRPTTVPRP | 0.792 |
| RRIRQRPPRLPRPRPRPGRRPRP | 0.388 |
| RRIRCRPPRLPRPRPRPYISPRP | -0.637 |
| RRIRDRPPRLPRPRPRPSLHPRP | 0.0986 |
| RRIRCRPPRLPRPRPRPSCTPRP | -0.287 |
| RRIRTRPPRLPRPRPRPEDYPRP | -0.00822 |
| RRIRGRPPRLPRPRPRPTCMPRP | 0.879 |
| RRIRRRPPRLPRPRPRPFLFPRP | 0.0785 |
| RRIRRRPPRLPRPRPRPNQVPRP | 0.12 |
| RRIRERPPRLPRPRPRPMDLPRP | -0.199 |
| RRIRQRPPRLPRPRPRPCWLPRP | 0.0947 |

| Sequence | shrunken log2 fold change |
| --- | --- |
| RRIRDRPPRLPRPRPRPMCLPRP | 0.131 |
| RRIRLRPPRLPRPRPRPISLPRP | -0.36 |
| RRIRERPPRLPRPRPRPIMYPRP | -1.08 |
| RRIRMRPPRLPRPRPRPMQIPRP | 0.0553 |
| RRIRKRPPRLPRPRPRPVSNPRP | -0.212 |
| RRIRPRPPRLPRPRPRPFIWPRP | -0.271 |
| RRIRMRPPRLPRPRPRPLFRPRP | 1.44 |
| RRIRMRPPRLPRPRPRPIFIPRP | 2.07 |
| RRIRIRPPRLPRPRPRPLLSPRP | -0.483 |
| RRIRYRPPRLPRPRPRPVKHPRP | -0.122 |
| RRIRWRPPRLPRPRPRPTHSPRP | 0.331 |
| RRIRQRPPRLPRPRPRPLYCPRP | -0.672 |
| RRIRWRPPRLPRPRPRPFGFPRP | 0.321 |
| RRIRNRPPRLPRPRPRPDSHPRP | -0.0854 |
| RRIRIRPPRLPRPRPRPTFFPRP | -0.292 |
| RRIRLRPPRLPRPRPRPTTMPRP | -0.439 |
| RRIRSRPPRLPRPRPRPGNVPRP | -0.0126 |
| RRIRIRPPRLPRPRPRPALDPRP | 1.45 |
| RRIRQRPPRLPRPRPRPHKQPRP | -0.608 |
| RRIRARPPRLPRPRPRPMARPRP | -0.132 |
| RRIRERPPRLPRPRPRPVMPPRP | -0.259 |
| RRIRARPPRLPRPRPRPTMPPRP | 0.364 |
| RRIRNRPPRLPRPRPRPGNWPRP | 0.0557 |
| RRIRDRPPRLPRPRPRPTGCPRP | 0.247 |
| RRIRKRPPRLPRPRPRPICLPRP | 0.141 |

| Sequence | shrunken log2 fold change |
| --- | --- |
| RRIRPRPPRLPRPRPRPEPLPRP | 0.0833 |
| RRIRRRPPRLPRPRPRPMGAPRP | 0.658 |
| RRIRQRPPRLPRPRPRPVKRPRP | 0.103 |
| RRIRIRPPRLPRPRPRPFRLPRP | -0.223 |
| RRIRYRPPRLPRPRPRPPIVPRP | -0.756 |
| RRIRCRPPRLPRPRPRPQAEPRP | 0.215 |
| RRIRSRPPRLPRPRPRPQKNPRP | -0.247 |
| RRIRTRPPRLPRPRPRPWATPRP | -0.00422 |
| RRIRGRPPRLPRPRPRPELVPRP | 1.58 |
| RRIRNRPPRLPRPRPRPLWYPRP | -0.619 |
| RRIRLRPPRLPRPRPRPQRMPRP | -0.124 |
| RRIRERPPRLPRPRPRPSLFPRP | -0.44 |
| RRIRDRPPRLPRPRPRPSGHPRP | 1.17 |
| RRIRWRPPRLPRPRPRPCESPRP | -0.0177 |
| RRIRERPPRLPRPRPRPLHDPRP | 0.0501 |
| RRIRIRPPRLPRPRPRPECRPRP | 0.0513 |
| RRIRWRPPRLPRPRPRPFKMPRP | -0.0125 |
| RRIRIRPPRLPRPRPRPNANPRP | -0.252 |
| RRIRWRPPRLPRPRPRPGLLPRP | 0.403 |
| RRIRPRPPRLPRPRPRPYQWPRP | -0.124 |
| RRIRERPPRLPRPRPRPDFRPRP | -0.0858 |
| RRIRCRPPRLPRPRPRPFKKPRP | -0.319 |
| RRIRLRPPRLPRPRPRPQMQPRP | 0.017 |
| RRIRERPPRLPRPRPRPCWLPRP | -0.0175 |
| RRIRFRPPRLPRPRPRPIFLPRP | -0.196 |

| Sequence | shrunken log2 fold change |
| --- | --- |
| RRIRSRPPRLPRPRPRPRECPRP | 0.71 |
| RRIRRRPPRLPRPRPRPAWFPRP | 0.22 |
| RRIRKRPPRLPRPRPRPRWNPRP | 0.323 |
| RRIRLRPPRLPRPRPRPIPNPRP | -0.135 |
| RRIRMRPPRLPRPRPRPSGDPRP | 0.839 |
| RRIRVRPPRLPRPRPRPMCIPRP | -0.047 |
| RRIRYRPPRLPRPRPRPDDWPRP | -0.437 |
| RRIRVRPPRLPRPRPRPRTDPRP | -0.191 |
| RRIRMRPPRLPRPRPRPLYTPRP | -0.116 |
| RRIRSRPPRLPRPRPRPITQPRP | -0.0534 |
| RRIRTRPPRLPRPRPRPPAVPRP | 0.292 |
| RRIRTRPPRLPRPRPRPNISPRP | -0.293 |
| RRIRWRPPRLPRPRPRPEQIPRP | 0.199 |
| RRIRQRPPRLPRPRPRPVSQPRP | 0.00815 |
| RRIRWRPPRLPRPRPRPDLHPRP | 0.243 |
| RRIRFRPPRLPRPRPRPHWSPRP | -0.54 |
| RRIRKRPPRLPRPRPRPFEPPRP | 0.00335 |
| RRIRIRPPRLPRPRPRPNQDPRP | -0.507 |
| RRIRQRPPRLPRPRPRPRYLPRP | -0.422 |
| RRIRRRPPRLPRPRPRPNKRPRP | -0.0621 |
| RRIRIRPPRLPRPRPRPPMHPRP | -0.0688 |
| RRIRRRPPRLPRPRPRPHFAPRP | 0.382 |
| RRIRSRPPRLPRPRPRPRDAPRP | 0.328 |
| RRIRKRPPRLPRPRPRPIDSPRP | 0.229 |
| RRIRLRPPRLPRPRPRPKTGPRP | 0.25 |

| Sequence | shrunken log2 fold change |
| --- | --- |
| RRIRLRPPRLPRPRPRPRIRPRP | 0.103 |
| RRIRQRPPRLPRPRPRPVFPPRP | 0.212 |
| RRIRSRPPRLPRPRPRPHQDPRP | -0.117 |
| RRIRMRPPRLPRPRPRPIEKPRP | -0.00199 |
| RRIRNRPPRLPRPRPRPGGMPRP | -0.0941 |
| RRIRIRPPRLPRPRPRPAKDPRP | -0.268 |
| RRIRERPPRLPRPRPRPTHMPRP | -0.182 |
| RRIRQRPPRLPRPRPRPAQQPRP | 0.00707 |
| RRIRQRPPRLPRPRPRPQFGPRP | 0.0348 |
| RRIRARPPRLPRPRPRPWSVPRP | 0.0303 |
| RRIRRRPPRLPRPRPRPDKVPRP | -0.053 |
| RRIRIRPPRLPRPRPRPNYKPRP | -0.911 |
| RRIRCRPPRLPRPRPRPDCRPRP | -0.195 |
| RRIRCRPPRLPRPRPRPIEKPRP | -0.0167 |
| RRIRRRPPRLPRPRPRPLMRPRP | 1.07 |
| RRIRERPPRLPRPRPRPILFPRP | -0.57 |
| RRIRRRPPRLPRPRPRPKVQPRP | -0.0356 |
| RRIRCRPPRLPRPRPRPFVFPRP | -0.26 |
| RRIRKRPPRLPRPRPRPYGHPRP | -0.162 |
| RRIRGRPPRLPRPRPRPTPRPRP | 1.16 |
| RRIRRRPPRLPRPRPRPEATPRP | 2.74 |
| RRIRTRPPRLPRPRPRPSQYPRP | -0.142 |
| RRIRNRPPRLPRPRPRPSHDPRP | -0.516 |
| RRIRSRPPRLPRPRPRPVHLPRP | -0.177 |
| RRIRKRPPRLPRPRPRPVEMPRP | 0.126 |
